Measurements taken from PMC4855880 (Developmental cell, 2016).

Target: Rvs167 (1-265)/161 heterodimer (S. cerevisiae, UniProt P39743 1-265; P25343 1-265)
Assay: liposome flotation

stoichiometry N: ~0.25 calmodulin per heterodimer
B1: GST-Cmd1 (natural protein)
chain: not shown
